pKd: −log10 of the molar value. Read-outs that look alike come from different tables or passages of the source.
Key:
FGF2 [1] = biological target: FGF2 (UniProt P09038); details: cited from earlier work
FGF9 [2] = biological target: FGF9 (UniProt P31371); assay: SPR; BIAcore 3000; […] (31.25–[…]), HBS-EP buffer; 1:1 Langmuir fit
FGF2 [3] = biological target: FGF2 (UniProt P09038); assay: as above
FGF9 [4] = biological target: FGF9 (UniProt P31371); assay: as above; remark: listed apart in the source
FGF2 [5] = biological target: FGF2 (UniProt P09038); assay: as above; remark: listed apart in the source

Row | Substance | pKd (FGF2 [1]) | pKd (FGF9 [2]) | koff (FGF9 [2]) [s⁻¹] | kon (FGF9 [2]) [M⁻¹ s⁻¹] | pKd (FGF2 [3]) | koff (FGF2 [3]) [s⁻¹] | kon (FGF2 [3]) [M⁻¹ s⁻¹] | pKd (FGF9 [4]) | koff (FGF9 [4]) [s⁻¹] | kon (FGF9 [4]) [M⁻¹ s⁻¹] | pKd (FGF2 [5]) | koff (FGF2 [5]) [s⁻¹] | kon (FGF2 [5]) [M⁻¹ s⁻¹]
1 | FGFR2b Loop 2,3 (from UniProt P21802) | 7.89 | – | – | – | – | – | – | – | – | – | – | – | –
2 | FGFR3b Loop 2,3 (domain or fragment) | – | 7.52 | 6.53e-05 | 2190 | 7.87 | 6.69e-05 | 4980 | 7.51 | 9.25e-05 | 2920 | 7.91 | 0.000159 | 16500

Reference: publication PMC3656097
